According to paper PMC5690283:

Target: E-Syt2 C2B domain (within the E-syt2 C2AB construct, 343-646, C611S) (human)
Assay: single-molecule force spectroscopy (optical tweezers); the two C2 domains stand on one chain (C2AB); N-terminus held by biotin-streptavidin on a bilayer-coated silica bead or a streptavidin-coated bead, C-terminus on a DNA handle to a polystyrene bead; pulled at 10 nm/s or held at constant trap separation; 25 mM HEPES pH 7.4, 200 mM NaCl, 100 uM Ca2+, room temperature (~23 C)

force at which the two domains dissociate: 8 to 13 pN
force of reversible dissociation and re-association: 11 pN
Substance: E-Syt2 C2A domain (within the E-syt2 C2AB construct, 343-646, C611S) (domain or fragment)
